Results on two substances are retold here after patent US20190247519.

Common to all, as to test: cell_activity
The subject of series [1] is ZF11xHunt-Kox-1 (ZF-Kox-1) (artificial (human Zif268 scaffold)).
For series [2], the system named is mZF11-ZF87 (mZF-ZF87, mZF-KRAB) (artificial (mouse Zif268 scaffold)). Particulars: R6/1 mice, 2 weeks after AAV injection; mZF-ZF87 design given as SEQ 50 (p342), legend of FIG. 13 cites SEQ 49.
The test system of series [3] is ZF6xHunt-Kox-1 (artificial (human Zif268 scaffold)). Particulars: mRNA repression up to 2.5-fold (60%); protein 2-fold; STHdh cells 20 days.
Sequence of ZF6xHunt-Kox-1 (artificial (human Zif268 scaffold)) (chain, as listed by the source): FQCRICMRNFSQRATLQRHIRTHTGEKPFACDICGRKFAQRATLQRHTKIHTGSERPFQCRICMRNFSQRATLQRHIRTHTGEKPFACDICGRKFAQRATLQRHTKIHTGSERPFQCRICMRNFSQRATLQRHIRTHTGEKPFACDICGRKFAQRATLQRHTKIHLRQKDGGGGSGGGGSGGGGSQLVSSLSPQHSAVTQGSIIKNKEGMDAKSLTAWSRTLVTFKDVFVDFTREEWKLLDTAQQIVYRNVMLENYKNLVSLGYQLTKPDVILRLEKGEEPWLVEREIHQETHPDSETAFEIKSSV

Sequence of ZF11xHunt-Kox-1 (ZF-Kox-1) (artificial (human Zif268 scaffold)) (chain, as listed by the source): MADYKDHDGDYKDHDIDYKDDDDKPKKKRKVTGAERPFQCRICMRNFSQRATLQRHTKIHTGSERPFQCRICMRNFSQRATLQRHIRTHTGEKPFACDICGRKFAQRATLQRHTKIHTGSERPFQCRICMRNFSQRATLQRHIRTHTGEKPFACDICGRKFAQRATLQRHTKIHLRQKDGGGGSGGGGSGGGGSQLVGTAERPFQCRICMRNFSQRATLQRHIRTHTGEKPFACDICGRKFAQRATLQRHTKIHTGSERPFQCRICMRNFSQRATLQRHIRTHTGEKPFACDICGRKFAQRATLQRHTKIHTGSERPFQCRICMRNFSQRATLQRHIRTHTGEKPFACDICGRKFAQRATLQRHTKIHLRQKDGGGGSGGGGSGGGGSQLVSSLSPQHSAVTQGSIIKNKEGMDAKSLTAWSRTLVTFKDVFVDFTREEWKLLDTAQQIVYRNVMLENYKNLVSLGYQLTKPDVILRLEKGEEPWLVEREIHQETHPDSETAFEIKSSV
Sequence of mZF11-ZF87 (mZF-ZF87, mZF-KRAB) (artificial (mouse Zif268 scaffold)) (chain, as listed by the source): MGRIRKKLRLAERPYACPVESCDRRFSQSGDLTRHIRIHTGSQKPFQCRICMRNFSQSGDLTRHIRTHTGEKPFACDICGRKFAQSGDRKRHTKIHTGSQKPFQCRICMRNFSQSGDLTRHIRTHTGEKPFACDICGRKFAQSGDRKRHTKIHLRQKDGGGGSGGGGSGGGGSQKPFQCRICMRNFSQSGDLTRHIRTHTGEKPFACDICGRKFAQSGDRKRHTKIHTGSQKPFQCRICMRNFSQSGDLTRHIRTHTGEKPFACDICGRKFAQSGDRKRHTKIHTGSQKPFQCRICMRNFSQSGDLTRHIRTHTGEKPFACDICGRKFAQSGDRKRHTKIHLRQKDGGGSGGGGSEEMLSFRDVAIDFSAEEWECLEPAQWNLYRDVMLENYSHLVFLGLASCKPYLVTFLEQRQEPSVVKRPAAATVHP

Consider “mutant HTT transgene in R6/2 or R6/1 mice”, for which the activity in series [1] (R6/2 mice, 2 weeks after AAV injection, mRNA) stood at 35 % reduction; in series [2], 30 % reduction.

With chromosomal mutant Htt Q111 (STHdhQ111), the activity in series [1] (almost 80% mRNA reduction, 95% protein reduction, STHdh cells 20 days) stood at 80 % reduction; in series [3] it was 2.5 fold.
